Here are results for 167 variants from the RNAGym collection of RNA variant scans (doi:10.7554/elife.80360).

B1: CPEB3 Ribozyme (parent)
chain: GGGGGCCACAGCAGAAGCGUUCACGUCGCGGCCCCUGUCAGAUUCUGGUGAAUCUGCGAAUUCUGCUGU

In this series the parent is B1. The experiment in a line: self-cleavage, relative activity (ratio to wild type); higher = more cleavage; co-transcriptional.
In the case of G25C C33G, the self-cleavage turned out to be 0.235. In the case of C27G A42U, the self-cleavage was 0.136.

For the variant G25U G41U, the self-cleavage came to 0.173. On to G25U G41C, for which the self-cleavage was 0.103. In the case of C27A G58C it was 0.605; in that of G25U U64G, 0.189.

With C27A C54G, the self-cleavage worked out at 0.156. For C27A C54U, the self-cleavage amounted to 0.602.

As for C27A A60C, the self-cleavage is 0.23. Next, G25U U26G: 0.0885. Next, G25U U49A: 0.12. Take C27G A60C: the self-cleavage was 0.238.

Regarding G25A U49A, the self-cleavage was 0.155. With G25C G31A, the self-cleavage was 0.217. In the case of U26G C35U it was 0.726. In the case of G25A C63G it was 0.185; in that of G25A C63A, 0.104; in that of U26G C63G, 0.427. Take C27G A40G: the self-cleavage is 0.243.

Take C27G A40U: the self-cleavage was found to be 0.17. In the case of C27U A40C, the self-cleavage is 0.198. In the case of G25C G56U it was 0.256.

As to G25C G56C, the self-cleavage was 0.164. In the case of C27A U61A it was 0.28; in that of C27A C35G, 0.256. Next, U26A G41U: 0.67; U26A G41A: 0.561. Next, U26C U69G: 1.06.

Regarding U26C C66U, the self-cleavage came to 0.939.

Turning to U26A U49G, the self-cleavage amounted to 0.866. Next, U26A U49A: 0.866; U26A U49C: 0.79. Next, U26G G58C: 0.799.

In the case of U26A C57A, the self-cleavage was found to be 0.355.

As for U26A C35G, the self-cleavage came to 0.207. Next, C27A G37A: 0.203. As for G25U C35U, the self-cleavage worked out at 0.139. In the case of U26A U61A it was 0.515; in that of U26A C27A, 0.424.

For C27A C57G, the self-cleavage turned out to be 0.298. Next, U26C G50A: 0.953; G25C C29A: 0.143. Regarding G25C U36A, the self-cleavage came out at 0.201. In the case of G25C U36C it was 0.24; in that of U26C U36G, 0.123; in that of G25A U62G, 0.16. U26G U36A: the self-cleavage is 0.186. Next, G25U U36G: 0.155; G25A G30U: 0.209; C27G U43A: 0.133. Next, C27G U43G: 0.154.

Take G25A G47C: the self-cleavage was 0.217. Regarding G25A G47U, the self-cleavage is 0.198. Next, G25A C66G: 0.223. With C27U C29G, the self-cleavage was 0.114.

In the case of U26A G50U, the self-cleavage came out at 0.818. In the case of C27G C33A it was 0.29; in that of C27G C33U, 0.188; in that of U26A A59C, 0.322. Next, G25C U44C: 0.144; G25C U44G: 0.139.

Regarding G25C C63G, the self-cleavage is 0.176. In the case of G25C C63A it was 0.235; in that of G25C C27A, 0.146. G25C G65A: the self-cleavage is 0.216. In the case of U26G G28U it was 0.178; in that of U26G G28A, 0.183; in that of U26G A42G, 0.78. In the case of U26C C39A it was 0.79; in that of U26C U55G, 0.74.

As to U26A U46C, the self-cleavage turned out to be 0.809. G25A U55A: the self-cleavage was 0.222. In the case of C27G G48U it was 0.163; in that of C27G G48C, 0.241. For G25U C45G, the self-cleavage turned out to be 0.133.

Consider G25C U49C, for which the self-cleavage was 0.185. In the case of U26A U67A it was 0.913; in that of G25U U38C, 0.13; in that of G25U U38A, 0.168. For the variant U26A U64C, the self-cleavage worked out at 0.72. In the case of U26A U55A it was 0.745; in that of U26G U64G, 0.784.

As for U26G C27A, the self-cleavage is 0.458. Next, G25A G48C: 0.218. On to G25C G41U, for which the self-cleavage was 0.144.

For the variant G25C U61A, the self-cleavage amounted to 0.193. Consider G25C U61C, for which the self-cleavage worked out at 0.0705. Next, U26G G41U: 0.756; C27G G65C: 0.234; C27G G65U: 0.164.

As to U26A U44C, the self-cleavage stood at 0.768. Next, G25U G37A: 0.156; G25U G37U: 0.103. With U26A A42U, the self-cleavage came to 0.863. Regarding C27G U36G, the self-cleavage worked out at 0.14.

C27G U36C: the self-cleavage amounted to 0.168.

Turning to G25U U69A, the self-cleavage was determined as 0.136. As for C27G G41C, the self-cleavage turned out to be 0.176. In the case of G25U G68A it was 0.204.

In the case of G25U G47U, the self-cleavage turned out to be 0.148. Next, G25U G47A: 0.188; G25C U26C: 0.319; G25C U26G: 0.176. Next, G25C U26A: 0.252; U26C G28C: 0.1.

Regarding C27A U43C, the self-cleavage came out at 0.404.

Take C27A G48C: the self-cleavage was 0.652.

Consider C27A G48A, for which the self-cleavage was 0.745. Next, C27A G48U: 0.706. Next, G25U G65A: 0.184. Take G25U G65U: the self-cleavage is 0.187. Next, G25C G37U: 0.156. Next, U26C G68C: 1.03; C27A A52U: 0.547.

Turning to C27A A52G, the self-cleavage amounted to 0.708. In the case of G25U A42G it was 0.129; in that of C27A G47A, 0.734; in that of U26A G30U, 0.254.

As to U26A G30C, the self-cleavage came out at 0.266. Next, U26C C45A: 0.936; U26C C45G: 0.983.

Turning to G25C U53A, the self-cleavage amounted to 0.125.

U26A G47C: the self-cleavage worked out at 0.891.

Regarding U26C C57U, the self-cleavage came to 0.408. Next, C27G G47U: 0.17; C27G G47A: 0.265; U26G U49A: 0.918. Next, C27U A59C: 0.127; C27U A59U: 0.212. Next, C27U A59G: 0.246. For G25C C34U, the self-cleavage worked out at 0.219. Next, G25C U43A: 0.139; C27A U49A: 0.763; G25C C57U: 0.143. Next, G25C C57G: 0.141; G25A G50U: 0.267.

As to G25A G50C, the self-cleavage amounted to 0.28. Next, G25A G50A: 0.195; G25A C57G: 0.129; G25C U46C: 0.218.

Regarding C27G G28A, the self-cleavage was 0.147.

With C27A A51C, the self-cleavage was 0.494. In the case of C27A A51G it was 0.67. Next, C27G U64C: 0.254; U26A A40U: 0.531. In the case of C27A G31A it was 0.171; in that of C27A G31U, 0.165. As for U26A G58C, the self-cleavage was 0.792. Next, U26A G58U: 0.852; U26A G58A: 0.627; C27G C34A: 0.207. Next, U26C C34U: 0.935; U26C C34A: 0.731; U26G U55A: 0.737. Next, U26G U55C: 0.787.

As to U26A C45G, the self-cleavage was determined as 0.895. Next, U26A C45A: 0.828; U26A C45U: 0.879. In the case of U26G A59U it was 0.455; in that of G25U C63G, 0.175. Next, U26A G65U: 0.466; U26A G65C: 0.466; G25A C54U: 0.248. Turning to C27G G58A, the self-cleavage amounted to 0.16. Next, G25U G56U: 0.134; G25U G56A: 0.171.

Turning to G25U G56C, the self-cleavage worked out at 0.158.
